Results on 1 substance are retold here after patent US20210401931A1, “METHODS AND MATERIALS FOR TREATING CANCER” (Mayo Foundation for Medical Education and Research, priority 2018, published 2021).

Ends that are not written are not given here.

One assay concerns the target T1, p65 (Homo sapiens, UniProt Q04206).
T1 construct: endogenous in cells; host or cells: 293T
In words: Co-IP of p65 by SFB-tagged RL peptide in 293T cells. It counts as binding. The settings on record: 48 hours after transfection. Here is the method:
FIGS. 10A-G. (A) Schematic diagram depicting a set of RB-N recombinant protein constructs. Western blot analysis of p65 proteins in PC-3 cells whole cell lysate pulled down by GST or GST-RB-N recombinant proteins. Stars indicate expected molecular weight. (B) Western blot analysis of in vitro transcribed and translated p65 proteins pulled down by GST or GST-RB recombinant proteins. Stars indicate expected molecular weight. (C) Western blot analysis of WCL and co-IP samples in 293T cells 48 h after transfected with indicated constructs. (D) Schematic diagram depicting an evolutionally conserved R-linker region in the N-terminal of RB. FIG. 10D discloses SEQ ID NOS 265 and 271-274, respectively, in order of appearance. (E) Western blot analysis of WCL and co-IP samples in 293T cells 48 hours after transfected with indicated constructs. (F) PC-3 cells were transfected with indicated plasmids. Western blot analysis of HA-RB proteins in PC-3 whole cell lysate pulled down by GST or GST-p65 recombinant proteins. Stars indicate expected molecular weight. (G) Schematic diagram depicting fully positively charged RB-N allows otherwise negatively charged by S249/T252 phosphorylation to bind to negatively charged 166FSLMV170 motif (SEQ ID NO: 286) in EID1. FIG. 10G discloses SEQ ID NOS 265-266 and 275, respectively, in order of appearance. […]

In assay [1] the test system is NF-κB site of the PD-L1 promoter. In words: EMSA with biotin-labeled PD-L1-prom oligonucleotide and PC-3 nuclear extracts. It counts as cell-based, human. Particulars: PC-3 cells expressing peptide. The source says: FIGS. 11A-H. (A) Heatmap showing differentially expressed genes (FDR<0.01) between palbociclib treatment versus DMSO and knockdown RB1 versus control. Gene expression values (FPKM) were Z-score normalized. FPKM, Fragments Per Kilobase of transcript per Million mapped reads. (B) UCSC Genome Browser screenshots of meta-analysis of published RB ChIP high throughput sequencing (ChIP-seq) data showing RB binding to CD274 (PD-L1) gene locus in K562 cells. PD-L1-prom oligonucleotide DNA containing NF-κB binding sequence was shown in the RB binding peak in the PD-L1 gene, the corresponding mutant PD-L1-prom oligonucleotide DNA was shown below. FIG. 11B discloses SEQ ID NOS 279-280, respectively, in order of appearance. (C) ChIP-qPCR analysis of RB binds at the PD-L1 promotor in PC-3 cells. All data were shown as mean values±SD (n=3). *** P<0.001. (D) ChIP-reChIP analysis examining the co-localization of p65 and RB in the PD-L1 promoters. All data were shown as mean values±SD (n=3). ** P<0.01. […]
FIGS. 21A-N. Effect of RB depletion, cell cycle, and RB-N S249/T252 phospho-mimicking peptide on PD-L1 expression in cell lines of various cancer types. […] 48 hours after infection, PD-L1 expression was determined by western blotting (A), RT-qPCR (B), and FACS (C). […] (D) Pd-l1 protein and mRNA levels were determined by western blotting in primary SKO and DKO mouse prostate tumor cell lines. […]
A general note: Mobility shift assays separate free from complexed probe on a gel.

T1 sequence (Q04206 whole entry): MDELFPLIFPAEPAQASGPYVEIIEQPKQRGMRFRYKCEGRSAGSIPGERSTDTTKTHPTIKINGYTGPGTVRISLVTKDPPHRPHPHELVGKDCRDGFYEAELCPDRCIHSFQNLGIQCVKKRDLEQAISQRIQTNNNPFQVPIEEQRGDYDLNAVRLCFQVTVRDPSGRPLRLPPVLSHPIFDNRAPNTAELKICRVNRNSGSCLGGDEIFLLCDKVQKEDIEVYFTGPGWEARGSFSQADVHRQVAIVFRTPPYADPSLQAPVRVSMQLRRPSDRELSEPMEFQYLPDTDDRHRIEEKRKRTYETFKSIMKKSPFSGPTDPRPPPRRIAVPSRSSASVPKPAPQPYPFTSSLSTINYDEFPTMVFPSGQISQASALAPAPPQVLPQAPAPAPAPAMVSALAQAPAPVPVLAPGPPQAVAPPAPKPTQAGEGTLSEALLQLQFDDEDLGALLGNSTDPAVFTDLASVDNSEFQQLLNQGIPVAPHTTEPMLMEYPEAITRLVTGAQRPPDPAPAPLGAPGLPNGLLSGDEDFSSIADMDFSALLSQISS

Regarding “RL-S249D/T252D: S249/T252 phospho-mimicking R-Linker (RL) peptide: fragment of RB-N containing 21 amino acids surrounding S249/T252, expressed SFB-tagged or by lentivirus (NGDPRDPRRGQNRSARIAKQL; also: expressed SFB-tagged (tag left off))”, the “immunoprecipitation of p65 by SFB-tagged RL peptide” value with p65 was “effectively immunoprecipitated”. Also, in assay [1], the “p65 binding to the cognate DNA in the PD-L1 promoter” value is recorded as “inhibition”.
